{"source": "paper PMC4357503", "key": {"GST-Puf4p": {"target": "T1, GST-Puf4p (UniProt P25339 1-888)", "T1 sequence": "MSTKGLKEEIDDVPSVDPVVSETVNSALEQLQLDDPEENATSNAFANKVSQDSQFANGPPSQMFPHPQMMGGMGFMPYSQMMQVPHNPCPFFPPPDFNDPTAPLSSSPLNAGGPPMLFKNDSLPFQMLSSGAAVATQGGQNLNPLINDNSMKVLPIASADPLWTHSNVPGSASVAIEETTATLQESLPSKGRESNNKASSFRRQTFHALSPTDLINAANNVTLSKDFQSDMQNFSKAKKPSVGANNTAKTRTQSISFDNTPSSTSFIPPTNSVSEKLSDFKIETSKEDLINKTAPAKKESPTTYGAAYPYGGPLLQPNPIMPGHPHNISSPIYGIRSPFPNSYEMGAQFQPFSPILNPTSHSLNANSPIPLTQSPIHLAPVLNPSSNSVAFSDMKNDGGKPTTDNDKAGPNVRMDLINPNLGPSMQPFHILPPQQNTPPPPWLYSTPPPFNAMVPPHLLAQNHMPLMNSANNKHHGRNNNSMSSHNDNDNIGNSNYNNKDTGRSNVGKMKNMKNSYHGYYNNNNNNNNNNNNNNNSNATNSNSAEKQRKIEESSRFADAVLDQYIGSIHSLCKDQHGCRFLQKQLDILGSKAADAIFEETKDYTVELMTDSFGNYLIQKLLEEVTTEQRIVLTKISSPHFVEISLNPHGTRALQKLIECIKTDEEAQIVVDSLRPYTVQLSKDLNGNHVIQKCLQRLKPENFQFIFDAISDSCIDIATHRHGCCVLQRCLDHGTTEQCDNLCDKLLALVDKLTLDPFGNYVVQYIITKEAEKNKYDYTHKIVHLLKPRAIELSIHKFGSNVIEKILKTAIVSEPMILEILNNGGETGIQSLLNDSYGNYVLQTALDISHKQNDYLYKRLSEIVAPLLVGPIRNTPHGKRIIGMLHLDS", "experiment": "EMSA"}, "GST-Puf1p": {"target": "T2, GST-Puf1p (UniProt P47135 1-1091)", "T2 sequence": "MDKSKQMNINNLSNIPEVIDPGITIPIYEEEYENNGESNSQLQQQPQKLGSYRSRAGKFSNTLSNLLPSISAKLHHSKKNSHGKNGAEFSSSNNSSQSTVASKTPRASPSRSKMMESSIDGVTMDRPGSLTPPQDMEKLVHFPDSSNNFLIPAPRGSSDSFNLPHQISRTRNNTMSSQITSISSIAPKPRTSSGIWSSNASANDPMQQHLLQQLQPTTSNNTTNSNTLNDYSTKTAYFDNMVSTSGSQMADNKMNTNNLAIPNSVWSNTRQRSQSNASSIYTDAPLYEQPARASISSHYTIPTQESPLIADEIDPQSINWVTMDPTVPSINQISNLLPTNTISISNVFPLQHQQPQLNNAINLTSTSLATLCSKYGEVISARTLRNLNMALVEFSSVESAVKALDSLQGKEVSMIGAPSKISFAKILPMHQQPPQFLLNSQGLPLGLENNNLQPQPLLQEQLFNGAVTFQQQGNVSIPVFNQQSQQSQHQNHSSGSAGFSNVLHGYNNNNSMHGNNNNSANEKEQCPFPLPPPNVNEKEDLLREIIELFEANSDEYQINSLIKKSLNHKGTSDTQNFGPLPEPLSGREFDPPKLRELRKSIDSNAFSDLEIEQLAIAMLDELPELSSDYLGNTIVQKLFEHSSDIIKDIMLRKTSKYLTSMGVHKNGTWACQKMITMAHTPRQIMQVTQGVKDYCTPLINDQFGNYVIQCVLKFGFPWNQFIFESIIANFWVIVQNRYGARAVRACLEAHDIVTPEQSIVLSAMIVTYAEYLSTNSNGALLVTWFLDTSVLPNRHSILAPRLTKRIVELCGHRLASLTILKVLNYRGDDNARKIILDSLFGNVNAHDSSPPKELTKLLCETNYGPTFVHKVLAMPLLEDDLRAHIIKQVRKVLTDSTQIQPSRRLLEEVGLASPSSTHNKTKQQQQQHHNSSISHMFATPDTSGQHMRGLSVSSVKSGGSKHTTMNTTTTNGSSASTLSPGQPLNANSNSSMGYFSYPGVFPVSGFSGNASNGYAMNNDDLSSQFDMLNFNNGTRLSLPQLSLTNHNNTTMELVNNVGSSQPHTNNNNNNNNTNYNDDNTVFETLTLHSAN", "experiment": "EMSA"}}}
{"binder": "GUAAAGAUUGUGUAUGUAUUUAUAAGAUGAAUA (ssRNA)", "note": "[YHB1 WT PRE (oWO898)]", "values": [{"measurement": "binding result", "setting": "GST-Puf4p", "value": "binds"}, {"measurement": "binding result", "setting": "GST-Puf1p", "value": "binds"}]}
